Measurements: the supplement of paper PMC10266784

B1: library; numbered along this chain (parent)
chain: MAAAAAAAAEQQSSNGPVKKSMREKAVERRSVNKEHNSNFKAGYIPIDEDRLHKTGLRGRKGNLAICVIILLFILAVINLIITLVIWAVIRIGPNGCDSMEFHESGLLRFKQVSDMGVIHPLYKSTVGGRRNENLVITGNNQPIVFQQGTTKLSVENNKTSITSDIGMQFFDPRTQNILFSTDYETHEFHLPSGVKSLNVQKASTERITSNATSDLNIKVDGRAIVRGNEGVFIMGKTIEFHMGGNMELKAENSIILNGSVMVSTTRLPSSSSGDQLGSGDWVRYKLCMCADGTLFKVQVTSQNMGCQISDNPCGNTH

Variants of: B1
Test: SGCB cell-surface expression functional score (HA stain, bin4 vs bin1, normalised to synonymous) (log10 ratio); higher = more cell-surface SGCB (functional)
Method in brief: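 Codon-saturation libraries of HA-tagged, YFP-fused human beta-sarcoglycan were lentivirally transduced at MOI <0.1 into HEK293 cells stably expressing alpha-, gamma- and delta-sarcoglycan. YFP-positive cells were sorted after 72 hours, grown 5–7 days, stained on ice with Alexa Fluor 647 anti-HA, fixed, sorted into four 5% intensity bins and amplicon-sequenced. The functional score is the log ratio of highest-bin to lowest-bin variant frequency, taken as the median over codons and duplicate transductions. Synonymous variants were scaled per section to mean 0, SD 0.5.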

Going from MAAAAAAAAEQQSSNGPVKKSMREKAVERRSVNKEHNSNFKAGYIPIDEDRLHKTGLRGRKGNLAICVIILLFILAVINLIITLVIWAVIRIGPNGCDSNEFHESGLLRFKQVSDMGVIHPLYKSTVGGRRNENLVITGNNQPIVFQQGTTKLSVENNKTSITSDIGMQFFDPRTQNILFSTDYETHEFHLPSGVKSLNVQKASTERITSNATSDLNIKVDGRAIVRGNEGVFIMGKTIEFHMGGNMELKAENSIILNGSVMVSTTRLPSSSSGDQLGSGDWVRYKLCMCADGTLFKVQVTSQNMGCQISDNPCGNTH [M100N] to MAAAAAAAAEQQSSNGPVKKSMREKAVERRSVNKEHNSNFKAGYIPIDEDRLHKTGLRGRKGNLAICVIILLFILAVINLIITLVIWAVIRIGPNGCDSEEFHESGLLRFKQVSDMGVIHPLYKSTVGGRRNENLVITGNNQPIVFQQGTTKLSVENNKTSITSDIGMQFFDPRTQNILFSTDYETHEFHLPSGVKSLNVQKASTERITSNATSDLNIKVDGRAIVRGNEGVFIMGKTIEFHMGGNMELKAENSIILNGSVMVSTTRLPSSSSGDQLGSGDWVRYKLCMCADGTLFKVQVTSQNMGCQISDNPCGNTH [M100E], the “SGCB cell-surface expression functional score (log10)” value rises from -2.37 to -1.92.

Compared with MAAAAAAAAEQQSSNGPVKKSMREKAVERRSVNKEHNSNFKAGYIPIDEDRLHKTGLRGRKGNLAICVIILLFILAVINLIITLVIWAVIRIGPNGCDSIEFHESGLLRFKQVSDMGVIHPLYKSTVGGRRNENLVITGNNQPIVFQQGTTKLSVENNKTSITSDIGMQFFDPRTQNILFSTDYETHEFHLPSGVKSLNVQKASTERITSNATSDLNIKVDGRAIVRGNEGVFIMGKTIEFHMGGNMELKAENSIILNGSVMVSTTRLPSSSSGDQLGSGDWVRYKLCMCADGTLFKVQVTSQNMGCQISDNPCGNTH [M100I], MAAAAAAAAEQQSSNGPVKKSMREKAVERRSVNKEHNSNFKAGYIPIDEDRLHKTGLRGRKGNLAICVIILLFILAVINLIITLVIWAVIRIGPNGCDSHEFHESGLLRFKQVSDMGVIHPLYKSTVGGRRNENLVITGNNQPIVFQQGTTKLSVENNKTSITSDIGMQFFDPRTQNILFSTDYETHEFHLPSGVKSLNVQKASTERITSNATSDLNIKVDGRAIVRGNEGVFIMGKTIEFHMGGNMELKAENSIILNGSVMVSTTRLPSSSSGDQLGSGDWVRYKLCMCADGTLFKVQVTSQNMGCQISDNPCGNTH [M100H] is lower in “SGCB cell-surface expression functional score (log10)” value: -0.14 for the first, -1.39 for the second.

Going from MAAAAAAAAEQQSSNGPVKKSMREKAVERRSVNKEHNSNFKAGYIPIDEDRLHKTGLRGRKGNLAICVIILLFILAVINLIITLVIWAVIRIGPNGCDSFEFHESGLLRFKQVSDMGVIHPLYKSTVGGRRNENLVITGNNQPIVFQQGTTKLSVENNKTSITSDIGMQFFDPRTQNILFSTDYETHEFHLPSGVKSLNVQKASTERITSNATSDLNIKVDGRAIVRGNEGVFIMGKTIEFHMGGNMELKAENSIILNGSVMVSTTRLPSSSSGDQLGSGDWVRYKLCMCADGTLFKVQVTSQNMGCQISDNPCGNTH [M100F] to MAAAAAAAAEQQSSNGPVKKSMREKAVERRSVNKEHNSNFKAGYIPIDEDRLHKTGLRGRKGNLAICVIILLFILAVINLIITLVIWAVIRIGPNGCDSQEFHESGLLRFKQVSDMGVIHPLYKSTVGGRRNENLVITGNNQPIVFQQGTTKLSVENNKTSITSDIGMQFFDPRTQNILFSTDYETHEFHLPSGVKSLNVQKASTERITSNATSDLNIKVDGRAIVRGNEGVFIMGKTIEFHMGGNMELKAENSIILNGSVMVSTTRLPSSSSGDQLGSGDWVRYKLCMCADGTLFKVQVTSQNMGCQISDNPCGNTH [M100Q], the “SGCB cell-surface expression functional score (log10)” value falls from -0.46 to -1.26.

MAAAAAAAAEQQSSNGPVKKSMREKAVERRSVNKEHNSNFKAGYIPIDEDRLHKTGLRGRKGNLAICVIILLFILAVINLIITLVIWAVIRIGPNGCDSREFHESGLLRFKQVSDMGVIHPLYKSTVGGRRNENLVITGNNQPIVFQQGTTKLSVENNKTSITSDIGMQFFDPRTQNILFSTDYETHEFHLPSGVKSLNVQKASTERITSNATSDLNIKVDGRAIVRGNEGVFIMGKTIEFHMGGNMELKAENSIILNGSVMVSTTRLPSSSSGDQLGSGDWVRYKLCMCADGTLFKVQVTSQNMGCQISDNPCGNTH [M100R] and MAAAAAAAAEQQSSNGPVKKSMREKAVERRSVNKEHNSNFKAGYIPIDEDRLHKTGLRGRKGNLAICVIILLFILAVINLIITLVIWAVIRIGPNGCDSGEFHESGLLRFKQVSDMGVIHPLYKSTVGGRRNENLVITGNNQPIVFQQGTTKLSVENNKTSITSDIGMQFFDPRTQNILFSTDYETHEFHLPSGVKSLNVQKASTERITSNATSDLNIKVDGRAIVRGNEGVFIMGKTIEFHMGGNMELKAENSIILNGSVMVSTTRLPSSSSGDQLGSGDWVRYKLCMCADGTLFKVQVTSQNMGCQISDNPCGNTH [M100G] are within 0.2 log units of each other in “SGCB cell-surface expression functional score (log10)” value: -1.19 for the first, -1.04 for the second.

MAAAAAAAAEQQSSNGPVKKSMREKAVERRSVNKEHNSNFKAGYIPIDEDRLHKTGLRGRKGNLAICVIILLFILAVINLIITLVIWAVIRIGPNGCDSKEFHESGLLRFKQVSDMGVIHPLYKSTVGGRRNENLVITGNNQPIVFQQGTTKLSVENNKTSITSDIGMQFFDPRTQNILFSTDYETHEFHLPSGVKSLNVQKASTERITSNATSDLNIKVDGRAIVRGNEGVFIMGKTIEFHMGGNMELKAENSIILNGSVMVSTTRLPSSSSGDQLGSGDWVRYKLCMCADGTLFKVQVTSQNMGCQISDNPCGNTH [M100K] and MAAAAAAAAEQQSSNGPVKKSMREKAVERRSVNKEHNSNFKAGYIPIDEDRLHKTGLRGRKGNLAICVIILLFILAVINLIITLVIWAVIRIGPNGCDSPEFHESGLLRFKQVSDMGVIHPLYKSTVGGRRNENLVITGNNQPIVFQQGTTKLSVENNKTSITSDIGMQFFDPRTQNILFSTDYETHEFHLPSGVKSLNVQKASTERITSNATSDLNIKVDGRAIVRGNEGVFIMGKTIEFHMGGNMELKAENSIILNGSVMVSTTRLPSSSSGDQLGSGDWVRYKLCMCADGTLFKVQVTSQNMGCQISDNPCGNTH [M100P] are within 0.2 log units of each other in “SGCB cell-surface expression functional score (log10)” value: -2.02 for the first, -2.03 for the second.
